To fix the notation:
T1: human D2H transporter receptor domain, amino acid residues 387-685, His-tag fusion protein (human, UniProt Q07837 387-685)
T1 construct: Expressed as His-tag fusion, purified under denaturing conditions, coated on plates; not shown: poly-histidine tag (pET His-tag) at the NH2-terminal end
T1 sequence: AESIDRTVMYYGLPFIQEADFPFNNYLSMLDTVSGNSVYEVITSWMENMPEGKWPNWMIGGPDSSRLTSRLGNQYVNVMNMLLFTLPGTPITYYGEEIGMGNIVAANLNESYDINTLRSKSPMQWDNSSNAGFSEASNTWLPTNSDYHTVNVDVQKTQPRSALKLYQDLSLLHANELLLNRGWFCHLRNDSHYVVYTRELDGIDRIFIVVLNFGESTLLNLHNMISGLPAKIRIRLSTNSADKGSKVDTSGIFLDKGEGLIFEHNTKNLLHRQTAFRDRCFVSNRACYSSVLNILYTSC

T2: human PEPT1 (hPEPT1) receptor domain, amino acid residues 391-571, His-tag fusion protein (human, UniProt P46059 391-571)
T2 construct: Expressed as His-tag fusion, purified under denaturing conditions, coated on plates; not shown: poly-histidine tag (pET His-tag) at the NH2-terminal end
T2 sequence: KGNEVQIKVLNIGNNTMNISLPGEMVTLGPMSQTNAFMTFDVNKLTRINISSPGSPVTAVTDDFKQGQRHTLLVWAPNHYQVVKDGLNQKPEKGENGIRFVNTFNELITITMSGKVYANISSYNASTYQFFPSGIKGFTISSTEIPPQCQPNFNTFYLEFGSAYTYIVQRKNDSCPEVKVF

B1: phage S22 (peptide)
peptide: SSSSDWGGVPGKVVRERFKGRGCGISITSVLTGKPNPCPEPKAA
notes: pIII and flanks not included
B2: phage SNi45 (peptide)
peptide: SGGEVSSWGRVNDLCARVSWTGCGTARSARTDNKGFLPKHSSLR
notes: pIII and flanks not included
B3: phage SNi28 (peptide)
peptide: SHSGGMNRAYGDVFRELRDRWNATSHHTRPTPQLPRGPN
notes: pIII and flanks not included
B4: phage SNiAX8 (peptide)
peptide: SPKLSSVGVMTKVTELPTEGPNAISIPISATLGPRNPLR
notes: pIII and flanks not included
B5: phage SNiAX2 (peptide)
peptide: SDSDGDHYGLRGGVRCSLRDRGCGLALSTVHAGPPSFYPKLSSP
notes: pIII and flanks not included
B6: phage SNi10 (peptide)
peptide: RVGQCTDSDVRRPWARSCAHQGCGAGTRNSHGCITRPLRQASAH
notes: pIII and flanks not included
B7: phage S15 (peptide)
peptide: RSGAYESPDGRGGRSYVGGGGGCGNIGRKHNLWGLRTASPACWD
notes: pIII and flanks not included
B8: phage SNi34 (peptide)
peptide: SPCGGSWGRFMQGGLFGGRTDGCGAHRNRTSASLEPPSSDY
notes: pIII and flanks not included
B9: phage SNiAX6 (peptide)
peptide: RTTTAKGCLLGSFGVLSGCSFTPTSPPPHLGYPPHSVN
notes: pIII and flanks not included
B10: phage SNi38 (peptide)
peptide: RGAADQRRGWSENLGLPRVGWDAIAHNSYTFTSRRPRPP
notes: pIII and flanks not included
B11: phage DAB24 (peptide)
peptide: SKWSWSSRWGSPQDKVEKTRAGCGGSPSSTNCHPYTFAPPPQAG
notes: pIII and flanks not included
B12: phage DAB3 (peptide)
peptide: RWCGAELCNSVTKKFRPGWRDHANPSTHHRTPPPSQSSP
notes: pIII and flanks not included
B13: phage DAX15 (peptide)
peptide: SESGRCRSVSRWMTTWQTQKGGCGSNVSRGSPLDPSHQTGHATT
notes: pIII and flanks not included
B14: phage DAX23 (peptide)
peptide: REWRFAGPPLDLWAGPSLPSFNASSHPRALRTYWSQRPR
notes: pIII and flanks not included
B15: phage DAB30 (peptide)
peptide: SGFWEFSRGLWDGENRKSVRSGCGFRGSSAQGPCPVTPATIDKH
notes: pIII and flanks not included
B16: phage DAX27 (peptide)
peptide: SHPWYRHWNHGDFSGSGQSRHTPPESPHPGRPNATI
notes: pIII and flanks not included
B17: phage DAB7 (peptide)
peptide: RWCGADDPCGASRWRGGNSLFGCGLRCSAAQSTPSGRIHSTSTS
notes: pIII and flanks not included
B18: phage DAX24 (peptide)
peptide: RMEDIKNSGWRDSCRWGDLRPGCGSRQWYPSNMRSSRDYPAGGH
notes: pIII and flanks not included
B19: phage DAB18 (peptide)
peptide: RSSANNCEWKSDWMRRACIARYANSSGPARAVDTKAAP
notes: pIII and flanks not included
B20: phage DAB10 (peptide)
peptide: SKSGEGGDSSRGETGWARVRSHAMTAGRFRWYNQLPSDR
notes: pIII and flanks not included
B21: phage PAX18 (peptide)
peptide: SFLRFQSPRFEDYSRTISRLRNATNPSNVSDAHNNRALA
notes: pIII and flanks not included
B22: phage PAX16 (peptide)
peptide: SWTRWGKHTHGGFVNKSPPGKNATSPYTDAQLPSDQGPP
notes: pIII and flanks not included
B23: phage PAX35 (peptide)
peptide: RSITDGGINEVDLSSVSNVLENANSHRAYRKHRPTLKRP
notes: pIII and flanks not included
B24: phage PAX46 (peptide)
peptide: SRCTDNEQCPDTGTRSRSVSNARYFSSRLLKTHAPHRP
notes: pIII and flanks not included
B25: phage PAX14 (peptide)
peptide: RTFENDGLGVGRSIQKKSDRWYASHNIRSHFASMSPAGK
notes: pIII and flanks not included
B26: phage PAX45 (peptide)
peptide: SFQVYPDHGLERHALDGTGPLYAMPGRWIRARPQNRDRQ
notes: pIII and flanks not included
B27: phage 5PAX12 (peptide)
peptide: RGWKCEGSQAAYGDKDIGRSRGCGSITKNNTNHAHPSHGAVAKI
notes: pIII and flanks not included
B28: phage PAX38 (peptide)
peptide: SSKVSSPRDPTVPRKGGNVDYGCGHRSSARMPTSALSSITKCYT
notes: pIII and flanks not included
B29: phage PAX43 (peptide)
peptide: RWCEKHKFTAARCSAGAGFERDASRPPQPAHRDNTNRNA
notes: pIII and flanks not included
B30: phage P31 (peptide)
peptide: SARDSGPAEDGSRAVRLNGVENANTRKSSRSNPRGRRHP
notes: pIII and flanks not included
B31: phage PAX40 (peptide)
peptide: RASTQGGRGVAPEFGASVLGRGCGSATYYTNSTSCKDAMGHNYS
notes: pIII and flanks not included
B32: phage PAX9 (peptide)
peptide: RWPSVGYKGNGSDTIDVHSNDASTKRSLIYNHRRPLFP
notes: pIII and flanks not included
B33: phage PAX15 (peptide)
peptide: SYCRVKGGGEGGHTDSNLARSGCGKVARTSRLQHINPRATPPSR
notes: pIII and flanks not included
B34: phage P90 (peptide)
peptide: SSADAEKCAGSLLWWGRQNNSGCGSPTKKHLKHRNRSQTSSSSH
notes: pIII and flanks not included
B35: phage PAX17 (peptide)
peptide: SQVDSFRNSFRWYEPSRALCHGCGKRDTSTTRIHNSPSDSYPTR
notes: pIII and flanks not included

The target of the first assay is T3, human sucrase-isomaltase complex (hSI) receptor domain, amino acid residues 272-667, His-tag fusion protein (human, UniProt P14410 272-667).
T3 construct: Expressed as His-tag fusion, purified under denaturing conditions (urea or guanidine HCl), coated on plates; also called hS1 receptor domain; not shown: poly-histidine tag (pET His-tag) at the NH2-terminal end
T3 sequence (P14410 272-667, one chain of several): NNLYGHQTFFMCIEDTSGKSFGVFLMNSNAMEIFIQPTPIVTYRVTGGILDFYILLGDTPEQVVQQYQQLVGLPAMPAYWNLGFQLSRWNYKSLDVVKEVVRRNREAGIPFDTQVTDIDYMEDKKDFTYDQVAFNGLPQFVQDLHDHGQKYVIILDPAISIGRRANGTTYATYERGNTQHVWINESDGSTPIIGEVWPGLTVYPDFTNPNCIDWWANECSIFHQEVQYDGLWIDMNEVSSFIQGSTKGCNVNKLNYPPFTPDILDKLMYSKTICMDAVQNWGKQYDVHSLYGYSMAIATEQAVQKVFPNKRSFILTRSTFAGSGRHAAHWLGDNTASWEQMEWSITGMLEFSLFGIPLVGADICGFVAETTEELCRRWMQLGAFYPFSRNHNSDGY
In words: phage ELISA, coated hSI domain. (An ELISA detects its analyte on a solid surface through an enzyme-linked reagent.)
Molecule B1 gave an OD of 0.399 OD 650 nm.
The same measure, in the same setting: with B2 the figure was 0.518 OD 650 nm; with B3, 0.942 OD 650 nm.
The same measure, in the same setting: the result for B4 reads 0.342 OD 650 nm.
For B5, the OD was determined as 0.383 OD 650 nm.
Same read-out and setting: with B6 the figure was 0.57 OD 650 nm.
The molecule B7 had an OD of 0.478 OD 650 nm.
Molecule B8 showed an OD of 0.761 OD 650 nm.
Regarding B9, the OD came to 0.369 OD 650 nm.
For the molecule B10, the OD was 0.466 OD 650 nm.

The next assay concerns the target T1, human D2H transporter receptor domain, …. The assay can be described thus: phage ELISA, coated D2H domain. On the procedure:
(§1) 6.6. Receptor ELISA Procedure 96 well plates were coated overnight with GIT receptor, BSA and, optionally, IDE (insulin degrading enzyme, an irrelevant His-fusion protein) or hTF. The plates were blocked for one hour with 0.5% BSA-PBS. After clarification, the amplified phage were diluted 1:100 in 1% BSA plus 0.05% Tween 20 in PBS and added to the plates. Following incubation of the plates on a rotator for 1 to 2 hours, the plates were washed 5 times with 1% BSA plus 0.05% Tween 20 in PBS. […] After the plates were washed 5 times, as described above, TMB substrate was added to the wells. The plates were read at 650 nm absorbance.
For the molecule B11, the OD turned out to be 1.8 OD 650 nm.
The molecule B12 showed an OD of 0.406 OD 650 nm.
Turning to B13, the OD was determined as 0.391 OD 650 nm.
B14 showed an OD of 0.698 OD 650 nm.
B15 displayed an OD of 0.704 OD 650 nm.
Molecule B16 had an OD of 1.58 OD 650 nm.
With B17, the OD came to 0.702 OD 650 nm.
Molecule B18 had an OD of 0.591 OD 650 nm.
The molecule B19 gave an OD of 0.467 OD 650 nm.
The same measure, in the same setting: with B20 the figure was 0.644 OD 650 nm.

The next assay addresses T2, human PEPT1 (hPEPT1) receptor domain, …. In words: phage ELISA, coated hPEPT1 domain. The method, then:
as §1
B21 displayed an OD of 0.416 OD 650 nm.
Regarding B22, the OD stood at 0.648 OD 650 nm.
Molecule B23 registered an OD of 0.474 OD 650 nm.
B24 came in with an OD of 0.429 OD 650 nm.
For B25, the OD worked out at 1.1 OD 650 nm.
In turn, B26 yielded an OD of 0.419 OD 650 nm.
Consider B27, for which the OD was 0.227 OD 650 nm.
On to B28, for which the OD is 0.292 OD 650 nm.
The same measure, in the same setting: with B29 the figure was 0.345 OD 650 nm; with B30, 0.807 OD 650 nm.
Turning to B31, the OD is 0.461 OD 650 nm.
Molecule B32 had an OD of 0.312 OD 650 nm.
B33 registered an OD of 0.301 OD 650 nm.
The molecule B34 displayed an OD of 1.12 OD 650 nm.
B35 registered an OD of 0.514 OD 650 nm.

The target in the next assay is T3, human sucrase-isomaltase complex (hSI) …. In words: phage ELISA, OD on hSI over OD on BSA.
As for B1, the hSI/BSA came to 7 ratio.
In turn, B2 had a hSI/BSA of 9 ratio.
The molecule B3 gave a hSI/BSA of 8 ratio.
For the molecule B4, the hSI/BSA was determined as 5 ratio.
As to B5, the hSI/BSA worked out at 6 ratio.
For B6, the hSI/BSA came to 11 ratio.
Same read-out and setting: the result for B7 reads 9 ratio; that for B8, 7 ratio; that for B9, 7 ratio.
In the case of B10, the hSI/BSA came to 6 ratio.

A further assay deals with T1, human D2H transporter receptor domain, …. In words: phage ELISA, OD on D2H over OD on BSA. The method, then: as §1
B11 returned a D2H/BSA of 4 ratio.
On the same count and under the same terms, the result for B12 reads 6 ratio; that for B13, 4 ratio; that for B14, 5 ratio.
On the same count and under the same terms, the result for B15 reads 6 ratio; that for B16, 4 ratio; that for B17, 8 ratio.
B18: the D2H/BSA is 5 ratio.
In the case of B19, the D2H/BSA turned out to be 5 ratio.
On the same count and under the same terms, the result for B20 reads 4 ratio.

The next assay deals with T2, human PEPT1 (hPEPT1) receptor domain, …. The assay can be described thus: phage ELISA, OD on hPEPT1 over OD on BSA. The method, then:
as §1
For the molecule B21, the PEPT1/BSA came to 5 ratio.
On to B22, for which the PEPT1/BSA was found to be 4 ratio.
Still for that read-out and setting: the result for B23 reads 7 ratio; that for B24, 6 ratio.
Still for that read-out and setting: the result for B25 reads 8 ratio.
As for B26, the PEPT1/BSA amounted to 5 ratio.
The molecule B27 came in with a PEPT1/BSA of 6 ratio.
Molecule B28 returned a PEPT1/BSA of 5 ratio.
The molecule B29 gave a PEPT1/BSA of 5 ratio.
In turn, B30 yielded a PEPT1/BSA of 11 ratio.
B31: the PEPT1/BSA came out at 6 ratio.
On the same count and under the same terms, the result for B32 reads 4 ratio; that for B33, 4 ratio; that for B34, 9 ratio.
The molecule B35 came in with a PEPT1/BSA of 5 ratio.

The record behind these values is patent publication US7135457 (CYTOGEN, dated 2006).
